# Experimental data: US20230227571A1 (published 2023)
# Like-named read-outs stand apart in the source and are kept apart here.
# B1: anti-human C5 mAb 8E1 (antibody, V domains shown)
# VH: QVQLKESGPGLVAPSQSLSITCTVSGFPLNNYGIHWVRQPPGKGLEWLAVIWSDGRTTYNSALNSRLSISKDNSKSQVFFKMNSLQTDDTAMYYCARHDGRGDYSMDYWGQGTSVTVSS
# VL: ELVMTQSPASLVVSLGQRATISCRASKGVSTSVYSYMHWYQQKPGQPPKLLIYLASNLESGVPARFSGSGSGTDFSLNIHPVEEEDAATYYCQQSGELPLTFGAGTKLELKR
# B2: anti-human C5 mAb 9G6 (antibody, V domains shown)
# VH: QIQLVQSGPELKKPGETVKISCKASGYTFTEYPMHWVKQAPGKSFKWMGILYTDTGEPTYAEEFRGRFAFSLETSASTAYLQINNLKNEDTATYFCVHSGYVGYWGQGTTLTVSS
# VL: DIQMTQSPASLSASVGETVTFTCRASEIIYSYLVWYQQKQGKSPQLLVSNAKTLAEGVPSRFSGSGSGTQFSLKINSLQPEDFGSYYCQHYYGNPPTFGGGTKLEIKR
# B3: anti-human C5 mAb 2G1 (antibody, V domains shown)
# VH: EVQLQQSGPELVKPGASVKISCKASGYTITDYNLDWVKQSHGKSLEWIGDISPNYGYTIYNQKFKDKATLTVDRSSSTAYMELRSLTSEDTAVYYCARRDIRYSGNSYKWYFDVWGTGTTVTVSS
# VL: DVQITQSPSYLAASPGETITINCRTSKSISKYLAWYQEKPGKTNKLLIYSGSTLQSGIPSRFRGSGSGTDFTLTISSLEPEDFAMYYCQQHNEYPYTFGGGTKLEIK
# B4: anti-human C5 mAb 11C5 (antibody, V domains shown)
# VH: EVQLVESGGGLVKPGGSLKLSCAASGFTFTTYAMSWVRQTPEKRLEWVATISAGGTYTYYSDNVKGRFTISRDNAKNNLYLQMSHLKSEDTAMFYCARDPDYYGRSPFAYWGQGTLVTVSA
# VL: EIVLTQSPATLSVTPGESVSLSCRASQSISNNLQWYQQKSHESPRLLIKYASQSISGIPSRFSGSGSGTDFTLSINSVETEDFGMYFCQQSNSWPLTFGGGTKVELKR
# B5: anti-human C5 mAb 11D9 (antibody, V domains shown)
# VH: EVQLQQSGPEVVKPGASVKISCKASGYTFTDFYMNWVKQSHGKSLEWIGYINPNNGDTSYNQKFKGKATSTVDRSSNTAYMELRSLTSEDSAVYYCARLIFYGNWYFDVWGTGTTVTVSS
# VL: EIVLTQSPPTMAASPGEKITITCSASSSISSNYVHWYQQKPGFSPKLLIYRTSNLASGVPVRFSGSGSGTSYSLTIGTMEAEDVATYYCQQGTSIPWTFGGGTKVEINR
# What was measured:
# Test in all cases: SPR (Biacore)
# [1] = molecular target: T1, human C5 (purified human complement C5, Complement Technology #A120; also C5 in normal human serum) (human, UniProt P01031 19-673; P01031 678-1676)
# [2] = molecular target: T1, human C5 (purified human complement C5, …); remark: listed apart in the source
# [3] = molecular target: T1, human C5 (purified human complement C5, …); remark: listed apart in the source
# [4] = molecular target: T1, human C5 (purified human complement C5, …); remark: listed apart in the source
# [5] = molecular target: T1, human C5 (purified human complement C5, …); remark: listed apart in the source
# T1 sequence (P01031 19-673, chain 1 of 2): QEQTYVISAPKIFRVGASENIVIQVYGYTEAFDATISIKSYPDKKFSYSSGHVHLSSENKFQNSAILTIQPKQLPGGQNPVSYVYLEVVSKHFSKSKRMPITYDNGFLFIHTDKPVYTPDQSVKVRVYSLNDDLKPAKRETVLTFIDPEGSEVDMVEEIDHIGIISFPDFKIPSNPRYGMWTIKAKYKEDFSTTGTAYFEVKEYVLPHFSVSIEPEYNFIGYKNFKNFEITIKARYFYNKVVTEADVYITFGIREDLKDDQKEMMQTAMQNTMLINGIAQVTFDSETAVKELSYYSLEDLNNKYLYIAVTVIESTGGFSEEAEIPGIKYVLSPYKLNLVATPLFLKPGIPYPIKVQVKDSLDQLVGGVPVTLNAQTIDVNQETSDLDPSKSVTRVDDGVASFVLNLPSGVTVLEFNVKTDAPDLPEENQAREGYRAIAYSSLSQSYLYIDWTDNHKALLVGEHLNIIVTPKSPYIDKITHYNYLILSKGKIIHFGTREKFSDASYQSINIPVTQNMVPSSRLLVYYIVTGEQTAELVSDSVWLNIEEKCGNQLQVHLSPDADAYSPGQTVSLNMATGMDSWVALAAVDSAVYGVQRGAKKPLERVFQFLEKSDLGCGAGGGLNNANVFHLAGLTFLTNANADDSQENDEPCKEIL
# T1 sequence (P01031 678-1676, chain 2 of 2): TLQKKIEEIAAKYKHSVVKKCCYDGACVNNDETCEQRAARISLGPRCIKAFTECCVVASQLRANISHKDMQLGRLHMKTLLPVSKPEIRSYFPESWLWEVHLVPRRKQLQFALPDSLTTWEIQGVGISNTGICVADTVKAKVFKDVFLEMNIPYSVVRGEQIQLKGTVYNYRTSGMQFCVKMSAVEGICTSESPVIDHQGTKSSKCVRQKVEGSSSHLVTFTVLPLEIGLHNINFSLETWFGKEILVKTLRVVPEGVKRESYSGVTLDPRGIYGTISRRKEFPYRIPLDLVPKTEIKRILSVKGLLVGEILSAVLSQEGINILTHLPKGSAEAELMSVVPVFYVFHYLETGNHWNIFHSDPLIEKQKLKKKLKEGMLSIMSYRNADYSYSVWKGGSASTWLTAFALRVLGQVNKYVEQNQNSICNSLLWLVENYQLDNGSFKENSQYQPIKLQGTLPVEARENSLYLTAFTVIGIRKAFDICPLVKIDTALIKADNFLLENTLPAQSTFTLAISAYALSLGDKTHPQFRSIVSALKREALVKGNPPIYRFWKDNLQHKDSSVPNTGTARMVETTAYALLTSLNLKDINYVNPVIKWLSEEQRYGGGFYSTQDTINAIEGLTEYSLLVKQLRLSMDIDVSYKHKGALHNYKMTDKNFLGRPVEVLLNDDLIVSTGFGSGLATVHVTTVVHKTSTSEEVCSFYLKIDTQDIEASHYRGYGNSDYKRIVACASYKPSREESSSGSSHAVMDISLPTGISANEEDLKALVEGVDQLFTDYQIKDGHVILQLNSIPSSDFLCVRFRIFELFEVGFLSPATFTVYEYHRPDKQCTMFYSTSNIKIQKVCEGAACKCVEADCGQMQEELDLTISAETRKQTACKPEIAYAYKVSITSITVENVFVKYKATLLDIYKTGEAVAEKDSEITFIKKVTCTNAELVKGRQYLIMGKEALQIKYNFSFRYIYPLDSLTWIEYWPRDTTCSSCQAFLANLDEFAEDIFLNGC
binder,measurement,setting,value
B1,Kd,[1],0.427 nM
B2,Kd,[2],2.2 nM
B3,Kd,[3],0.845 nM
B4,Kd,[4],12.5 nM
B5,Kd,[5],2.2 nM
